± gives the uncertainty stated by the source.
B1: Homeobox protein cut-like 1, residues 548 to 629; numbered along this chain, P39880 (parent)
chain: GEEMDTAEIARQVKEQLIKHNIGQRIFGHYVLGLSQGSVSEILARPKPWNKLTVRGKEPFHKMKQFLSDEQNILALRSIQGR

Variants of: B1
Experiment: abundance fitness (aPCA) (normalised: wild type 0, dead -1); higher = more abundant; growth selection in yeast, the domain comes from the species named
Conditions: Homo sapiens

| Variant | abundance fitness |
| --- | --- |
| K47G | -0.288 ± 0.025 |
| K47I | -0.086 ± 0.058 |
| K47N | -0.339 ± 0.06 |
| K47T | -0.019 ± 0.033 |
| K47M | -0.06 ± 0.035 |
| K47E | -0.037 ± 0.032 |
| D5F | -0.644 ± 0.11 |
| D5V | -0.537 ± 0.035 |
| D5Q | -0.226 ± 0.037 |
| D5G | -0.395 ± 0.026 |
| D5L | -0.817 ± 0.053 |
| D5K | -0.274 ± 0.04 |
| D5M | -0.638 ± 0.062 |
| D5I | -0.689 ± 0.1 |
| D5A | -0.204 ± 0.029 |
| D5Y | -0.561 ± 0.095 |
| H20W | -0.074 ± 0.029 |
| H20F | -0.029 ± 0.091 |
| H20N | -0.178 ± 0.056 |
| I42D | -0.723 ± 0.082 |
| I42F | -0.242 ± 0.086 |

| Variant | abundance fitness |
| --- | --- |
| I42C | -0.253 ± 0.049 |
| I42V | -0.104 ± 0.028 |
| I42W | -0.513 ± 0.038 |
| I42A | -0.36 ± 0.034 |
| I42P | -0.819 ± 0.11 |
| G28A | 0.018 ± 0.027 |
| G28M | -0.241 ± 0.042 |
| G28D | -0.349 ± 0.054 |
| G28K | -0.745 ± 0.067 |
| E70N | -0.084 ± 0.065 |
| E70W | -0.217 ± 0.036 |
| E70R | -0.055 ± 0.026 |
| E58D | -0.105 ± 0.051 |
| E58I | -0.234 ± 0.085 |
| E58Y | -0.166 ± 0.075 |
| E58N | -0.27 ± 0.071 |
| F60S | -0.869 ± 0.068 |
| F60Y | 0.019 ± 0.069 |
| G37E | 0.136 ± 0.027 |
| G37S | 0.024 ± 0.033 |
| G37K | 0.091 ± 0.034 |

| Variant | abundance fitness |
| --- | --- |
| I79M | 0.046 ± 0.039 |
| I79Y | -0.097 ± 0.061 |
| I79H | -0.009 ± 0.05 |
| I79L | 0.028 ± 0.03 |
| I79K | 0.038 ± 0.041 |
| T53R | -0.767 ± 0.064 |
| T53V | -0.671 ± 0.059 |
| T53N | -0.077 ± 0.047 |
| T53D | 0.116 ± 0.054 |
| T53G | -0.032 ± 0.046 |
| T53Q | -0.369 ± 0.064 |
| N72R | -0.137 ± 0.027 |
| N72Y | -0.099 ± 0.053 |
| N72W | -0.131 ± 0.035 |
| G81R | -0.021 ± 0.036 |
| G81D | 0.043 ± 0.04 |
| G81Y | -0.163 ± 0.07 |
| G81Q | 0.095 ± 0.054 |
| G81V | 0.024 ± 0.035 |
| G81W | -0.077 ± 0.052 |
| Q71C | -0.11 ± 0.044 |

| Variant | abundance fitness |
| --- | --- |
| Q71S | 0.047 ± 0.035 |
| Q71F | -0.204 ± 0.057 |
| Q71Y | -0.257 ± 0.064 |
| Q71N | -0.099 ± 0.056 |
| Q71W | -0.293 ± 0.035 |
| K19A | -0.171 ± 0.026 |
| K19D | -0.344 ± 0.062 |
| K19V | -0.271 ± 0.028 |
| E8P | -0.979 ± 0.1 |
| E8T | -0.118 ± 0.038 |
| E8A | -0.118 ± 0.029 |
| E8D | -0.032 ± 0.038 |
| I18L | -0.031 ± 0.032 |
| I18N | 0.012 ± 0.055 |
| I18M | -0.005 ± 0.034 |
| S38N | -0.027 ± 0.049 |
| S38L | -0.005 ± 0.029 |
| S38Q | 0.113 ± 0.034 |
| S38D | 0.125 ± 0.045 |
| A10E | -0.822 ± 0.054 |

Source: the Human Domainome abundance scans (Beltran et al. 2025)
